From the supplement of paper PMC12042874
± gives the uncertainty stated by the source.

Test: amyloid nucleation score (Sup35N fusion, yeast selection) (log enrichment); library NNK3; higher = more nucleation; inactive = no reads after selection
Summary of the method: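 Random libraries were run with three technical output replicates. In each, psi-negative yeast expressing Sup35N fused to peptides of 20 random codons were induced 24 hours with 100 μM copper sulfate and grown 7 days at 30°C on medium lacking adenine and uracil, and input and output plasmid inserts were Illumina-sequenced. The nucleation score is the DiMSum log enrichment of output over input reads, centred on the mode score of non-aggregating sequences, and sequences under 100 input reads were excluded.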

Substance | amyloid nucleation score
RVAHFY | inactive
RVCLL | -0.539 ± 1.4
RVCSW | inactive
RVDWRNGRVRRHLRHVLRIN | inactive
RVEMICFQDYLEYKRE | inactive
RVGISTYLVVSEE | inactive
RVIATRDDCPFLGW | inactive
RVIIRKCDYFG | inactive
RVKSVTVMMIFDNYSCMVCN | 1.93 ± 0.069
RVKVSYASYARK | 1.49 ± 0.12
RVLNAYSLEYKCISSMPWYL | 1.49 ± 0.14
RVMAMYIGV | inactive
RVMRHLFHFVCNKSLDYWYR | inactive
RVMSWMILNKYVKIPYCRHR | inactive
RVRVNPSVHRRPRYGND | inactive
RVSLLNKGVGLRNIRFHEFL | inactive
RVSRADRGRCSSFYNLRVLS | inactive
RVSSFMSLTVGRYGKLHRDS | inactive
RVTFWPFVVSAFRVMYGICK | inactive
RVVCGNTGNVAIKKGLINMC | inactive
RVWHLYTMV | -1.11 ± 1.9
RVWMIGGYSDLFHWNSVLVS | inactive
RWNDKWGVDVRSLIIIFVGS | inactive
RWNIS | 0.28 ± 0.22

Substance | amyloid nucleation score
RWNVHCYAMLFDVGLVDARL | inactive
RWWVNSCMEIM | inactive
RWYRLSGYKSHRNR | inactive
RYDLIVKVVVSGESVSTWCC | inactive
RYDWLLGSVWVFLLA | inactive
RYIYPVDLYIWYNYGILLNR | 0.777 ± 0.23
RYRLSCWWIRLGGNRLAWY | inactive
RYRNIYC | inactive
RYVGAVWYYTMNIVNYNSFI | 1.7 ± 0.06
RYVQLCADYSHGF | inactive
SACNAPSLNSTLIVT | inactive
SAEVATFFNCKYHSSLSILT | inactive
SAEVF | inactive
SAGYGLPPPVEYFNWPFSC | -0.394 ± 1.9
SAIYMTVTVLVPFGFEMDNK | 0.178 ± 0.49
SAKCTKEFYSNASKYFNSYL | inactive
SAKFTLLGISL | inactive
SALGSSTSFYNGMRRPFRYH | inactive
SAMFTGNLYFDFVDPCYSGW | inactive
SAPRAEVSNRIK | inactive
SARIPSLWNHWRIW | inactive
SARRNSRTFLSLFVFHLFRA | inactive
SARVRAVAMFPPPALT | inactive
SARYDFSYEYGRIKYRELDR | 1.1 ± 0.15

Substance | amyloid nucleation score
SASCKYGVCLSDLLVSDWHY | inactive
SAYRVKMHKRRKAESVLGFR | inactive
SCFTEIEWS | inactive
SCGSSH | inactive
SCHLEVLFISLFD | inactive
SCIFNWFGFYNIINVFNLCF | 2.5 ± 0.053
SCILCIFPVRLVFYMM | inactive
SCMKDMWFVRVMIGLEKKNS | inactive
SCNNDPFTNDNASLVRLGRE | inactive
SCNSRFMI | -0.082 ± 0.66
SCSIIYRPPSIWRYSKRTSL | inactive
SCVDPVRWLRGASF | inactive
SCWLGVVETRHNLYDAQNGS | inactive
SCYFGILQWSQSPYFHCPFT | inactive
SDCCGRNHVPEGVLWSQFNY | inactive
SDCGDFRLMVFQKSRRDSWN | inactive
SDCSGYLQ | inactive
SDFDMFSCLGNRNLHCSVSV | inactive
SDFRVTPLLYE | inactive
SDGNSMLGDFRVRMVCHMLL | inactive
SDGSTRQSVRRVATPNVSRY | inactive
SDIIM | inactive
SDKPSMLKMIHVMR | inactive
SDMTYHQWGTVYTLD | inactive

Substance | amyloid nucleation score
SDNFLRNSLSQEYVRQTLGQ | inactive
SDNRSPSLRLFYRPRFHRLG | inactive
SDQSCGDIMMELFWQM | inactive
SDRFYHCTFHAVTVRWKQRV | inactive
SDRYDCRDGSCFNRKVRYSL | inactive
SDSFSGPVKEPRYWGSQ | inactive
SDTRGVF | inactive
SDWFGCVVVTLCLVNHQALS | inactive
SDYYMENISFCENMRDILFS | inactive
SECRTRLWLRESYNFSPDVK | inactive
SECWKAFDLGYDNKLSIPRI | inactive
SEGFLAWCLRDLRSGRVAR | inactive
SEIRGNRNMTTEAPT | inactive
SELQYISLIYCDNRVCLHAL | inactive
SEMHRERDTMCKVLPDNDKN | inactive
SENVYPCALKRSKGMLIRMV | inactive
SEPIWYFRGFFCGLGLIWGW | -0.389 ± 0.98
SEPRWSISDYWTKSVDMVLW | 1.07 ± 0.2
SERYADL | inactive
SESPKMLVHVVSHILRDFSE | inactive
SESQYRRWYTLAFVYMRHLN | inactive
SESSS | inactive
SESTFYMGRLFKEGPRKHVT | inactive
SETHLLQGDISVVMVLSAN | inactive

Substance | amyloid nucleation score
SEVGMVSLRLFWLWWVTKPK | inactive
SEVWKWMPDKCVSDGYVFDI | inactive
SFAGVCAMCKTCKRAKGVPA | -0.39 ± 1.9
SFECDRYYFSWDGFMSGLT | inactive
SFFESCF | inactive
SFFGVVGKEFVIVQLAIVSG | inactive
SFLDNCPRGNRGQVGSEPVS | inactive
SFLGLMSMEELITS | inactive
SFLHTQSAKDTFVHNAVTYT | inactive
SFLRIDVVWFSAFFGWSPFL | 0.357 ± 0.54
SFLYDSVNANLNSTCCCGYI | -0.913 ± 0.9
SFMACRLCGRAVDDIVEYTV | inactive
SFMYVCNLLLSSWSCP | 1.83 ± 0.063
SFNLTNSKYWVR | inactive
SFNRGRLATLYSSLVHGRLR | inactive
SFNSNSDDDIIFDALNYTLN | 0.069 ± 0.62
SFNVTVRGLSSSN | 0.027 ± 0.47
SFPLSYSSYIRLRVFFVE | inactive
SFRFVSLVLFAVNDNYGRCW | 1.61 ± 0.13
SFRNKLELFQLVCMHNEPGC | inactive
SFSRPCWLYWAGFLSVVYRC | inactive
